Consider five substances from patent US20080300206A1.

In this test the target is recombinant wild-type human alpha-synuclein (human) (UniProt P37840). Description: cell-based or functional assay.

Chain of Polo like kinase 2 (PLK2) (Q9NYY3 whole entry): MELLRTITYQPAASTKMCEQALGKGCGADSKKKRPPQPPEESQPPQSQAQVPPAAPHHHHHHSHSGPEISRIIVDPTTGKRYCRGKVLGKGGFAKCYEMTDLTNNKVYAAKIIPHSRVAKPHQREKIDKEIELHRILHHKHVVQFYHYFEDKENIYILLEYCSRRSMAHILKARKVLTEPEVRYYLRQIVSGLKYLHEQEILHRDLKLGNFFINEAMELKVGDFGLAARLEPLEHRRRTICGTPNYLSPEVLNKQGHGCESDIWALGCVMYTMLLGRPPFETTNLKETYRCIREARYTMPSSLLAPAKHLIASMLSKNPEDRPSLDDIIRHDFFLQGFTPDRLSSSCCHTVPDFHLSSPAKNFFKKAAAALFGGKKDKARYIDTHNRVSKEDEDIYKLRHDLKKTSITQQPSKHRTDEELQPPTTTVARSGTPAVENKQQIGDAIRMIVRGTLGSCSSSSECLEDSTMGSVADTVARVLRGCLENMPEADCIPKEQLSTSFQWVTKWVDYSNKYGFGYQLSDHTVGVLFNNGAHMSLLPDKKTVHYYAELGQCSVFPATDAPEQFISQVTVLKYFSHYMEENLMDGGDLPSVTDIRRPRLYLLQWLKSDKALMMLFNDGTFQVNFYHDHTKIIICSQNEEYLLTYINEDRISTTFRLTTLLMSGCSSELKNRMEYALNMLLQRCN
Chain of G protein-coupled receptor kinase 6 (GRK6) (P43250 whole entry): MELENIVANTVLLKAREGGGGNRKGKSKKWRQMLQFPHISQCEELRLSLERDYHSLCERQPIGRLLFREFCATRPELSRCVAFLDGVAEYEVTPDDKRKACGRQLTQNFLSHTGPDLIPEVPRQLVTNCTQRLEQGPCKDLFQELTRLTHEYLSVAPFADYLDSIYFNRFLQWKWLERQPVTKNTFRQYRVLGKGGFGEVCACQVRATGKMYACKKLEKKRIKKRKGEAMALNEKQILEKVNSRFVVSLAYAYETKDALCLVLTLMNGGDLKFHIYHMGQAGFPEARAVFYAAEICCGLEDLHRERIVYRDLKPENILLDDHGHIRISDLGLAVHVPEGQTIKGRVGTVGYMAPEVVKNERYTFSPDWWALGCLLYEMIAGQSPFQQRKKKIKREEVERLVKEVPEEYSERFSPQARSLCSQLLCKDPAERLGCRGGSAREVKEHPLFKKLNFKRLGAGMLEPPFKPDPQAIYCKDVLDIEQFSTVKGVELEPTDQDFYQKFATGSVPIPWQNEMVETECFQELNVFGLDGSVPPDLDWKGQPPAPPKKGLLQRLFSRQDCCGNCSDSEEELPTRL
Chain of Aortic preferentially expressed gene 1 (APEG1) (Q15772 whole entry): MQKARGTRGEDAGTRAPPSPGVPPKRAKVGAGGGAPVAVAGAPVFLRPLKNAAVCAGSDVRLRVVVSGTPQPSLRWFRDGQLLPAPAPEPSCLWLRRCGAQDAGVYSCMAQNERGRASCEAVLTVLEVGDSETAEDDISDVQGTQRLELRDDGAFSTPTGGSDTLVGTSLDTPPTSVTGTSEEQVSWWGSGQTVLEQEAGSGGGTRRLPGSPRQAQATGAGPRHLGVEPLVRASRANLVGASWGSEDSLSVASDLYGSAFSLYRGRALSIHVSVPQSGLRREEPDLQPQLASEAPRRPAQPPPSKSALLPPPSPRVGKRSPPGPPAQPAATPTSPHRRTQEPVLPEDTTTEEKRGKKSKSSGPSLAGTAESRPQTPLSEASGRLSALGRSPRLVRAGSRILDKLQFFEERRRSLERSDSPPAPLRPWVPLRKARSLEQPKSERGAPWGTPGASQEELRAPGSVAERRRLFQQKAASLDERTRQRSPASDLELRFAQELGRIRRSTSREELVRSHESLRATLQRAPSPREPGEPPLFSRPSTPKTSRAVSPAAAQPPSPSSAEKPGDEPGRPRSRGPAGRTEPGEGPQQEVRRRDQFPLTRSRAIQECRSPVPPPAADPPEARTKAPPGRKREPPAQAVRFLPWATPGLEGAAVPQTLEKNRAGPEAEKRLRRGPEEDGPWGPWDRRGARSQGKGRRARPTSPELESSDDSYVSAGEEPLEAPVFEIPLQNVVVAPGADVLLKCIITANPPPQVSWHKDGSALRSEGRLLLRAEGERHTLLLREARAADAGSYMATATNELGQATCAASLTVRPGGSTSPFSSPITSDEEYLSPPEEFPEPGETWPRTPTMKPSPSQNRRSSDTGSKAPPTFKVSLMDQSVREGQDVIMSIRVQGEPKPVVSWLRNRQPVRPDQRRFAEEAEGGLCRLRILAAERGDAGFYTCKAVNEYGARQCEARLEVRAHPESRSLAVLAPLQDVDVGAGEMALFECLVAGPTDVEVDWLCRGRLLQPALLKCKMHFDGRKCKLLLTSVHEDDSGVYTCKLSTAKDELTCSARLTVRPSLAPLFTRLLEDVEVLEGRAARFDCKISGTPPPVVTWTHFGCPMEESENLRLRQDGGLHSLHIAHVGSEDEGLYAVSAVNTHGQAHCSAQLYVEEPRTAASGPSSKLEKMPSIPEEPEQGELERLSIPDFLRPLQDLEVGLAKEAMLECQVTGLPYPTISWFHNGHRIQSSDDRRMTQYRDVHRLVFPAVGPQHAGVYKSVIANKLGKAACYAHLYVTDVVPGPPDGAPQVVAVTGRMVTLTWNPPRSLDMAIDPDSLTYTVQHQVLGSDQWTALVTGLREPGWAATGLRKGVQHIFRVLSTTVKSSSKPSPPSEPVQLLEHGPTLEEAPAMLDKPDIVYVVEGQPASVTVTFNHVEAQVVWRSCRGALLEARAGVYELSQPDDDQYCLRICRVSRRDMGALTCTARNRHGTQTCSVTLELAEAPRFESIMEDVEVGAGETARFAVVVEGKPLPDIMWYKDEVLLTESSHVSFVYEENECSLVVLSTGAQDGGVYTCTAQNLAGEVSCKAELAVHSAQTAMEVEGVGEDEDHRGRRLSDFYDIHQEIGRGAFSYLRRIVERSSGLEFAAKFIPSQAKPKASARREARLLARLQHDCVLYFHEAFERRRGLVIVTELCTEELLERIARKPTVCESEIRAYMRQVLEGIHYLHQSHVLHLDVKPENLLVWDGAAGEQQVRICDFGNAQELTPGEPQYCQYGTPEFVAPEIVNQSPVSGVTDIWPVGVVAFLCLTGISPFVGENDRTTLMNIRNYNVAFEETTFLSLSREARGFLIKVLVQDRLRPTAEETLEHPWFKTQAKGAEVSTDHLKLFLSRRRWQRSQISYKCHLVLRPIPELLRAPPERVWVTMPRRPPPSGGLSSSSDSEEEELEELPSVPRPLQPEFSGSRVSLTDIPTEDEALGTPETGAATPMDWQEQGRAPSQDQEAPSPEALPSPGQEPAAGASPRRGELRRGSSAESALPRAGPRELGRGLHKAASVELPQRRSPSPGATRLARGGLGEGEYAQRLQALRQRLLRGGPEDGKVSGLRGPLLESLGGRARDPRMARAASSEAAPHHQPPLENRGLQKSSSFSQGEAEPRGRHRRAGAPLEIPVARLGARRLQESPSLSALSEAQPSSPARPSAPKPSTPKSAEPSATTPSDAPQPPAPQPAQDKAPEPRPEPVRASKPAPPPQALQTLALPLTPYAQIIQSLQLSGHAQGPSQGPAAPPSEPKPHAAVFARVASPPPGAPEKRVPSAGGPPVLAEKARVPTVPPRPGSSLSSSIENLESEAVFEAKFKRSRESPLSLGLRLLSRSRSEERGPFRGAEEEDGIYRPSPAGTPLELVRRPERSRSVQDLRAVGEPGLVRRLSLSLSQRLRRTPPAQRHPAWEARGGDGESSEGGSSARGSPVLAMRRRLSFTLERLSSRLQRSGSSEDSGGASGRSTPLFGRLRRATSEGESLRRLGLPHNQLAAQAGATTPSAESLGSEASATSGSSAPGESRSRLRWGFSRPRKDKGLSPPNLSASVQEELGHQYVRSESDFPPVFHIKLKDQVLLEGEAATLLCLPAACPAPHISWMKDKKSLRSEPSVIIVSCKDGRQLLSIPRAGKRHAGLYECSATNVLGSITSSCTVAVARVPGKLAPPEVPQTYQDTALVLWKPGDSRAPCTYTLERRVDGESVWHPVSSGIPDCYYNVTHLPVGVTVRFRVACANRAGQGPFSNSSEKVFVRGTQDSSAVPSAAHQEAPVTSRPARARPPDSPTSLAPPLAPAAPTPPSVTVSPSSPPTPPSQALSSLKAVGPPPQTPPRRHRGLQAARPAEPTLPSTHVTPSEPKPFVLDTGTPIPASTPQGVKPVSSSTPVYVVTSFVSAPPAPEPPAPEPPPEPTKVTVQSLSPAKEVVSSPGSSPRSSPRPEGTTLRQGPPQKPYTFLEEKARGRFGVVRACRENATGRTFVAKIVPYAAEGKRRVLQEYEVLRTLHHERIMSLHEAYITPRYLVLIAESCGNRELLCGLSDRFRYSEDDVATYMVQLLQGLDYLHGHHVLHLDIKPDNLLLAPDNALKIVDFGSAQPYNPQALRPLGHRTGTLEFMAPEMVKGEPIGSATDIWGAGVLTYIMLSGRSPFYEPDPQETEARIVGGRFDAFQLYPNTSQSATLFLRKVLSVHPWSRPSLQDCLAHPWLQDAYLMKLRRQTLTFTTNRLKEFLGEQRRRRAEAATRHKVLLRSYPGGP
Chain of CDC7 cell division cycle 7-like 1 (CDC7L1) (O00311 whole entry): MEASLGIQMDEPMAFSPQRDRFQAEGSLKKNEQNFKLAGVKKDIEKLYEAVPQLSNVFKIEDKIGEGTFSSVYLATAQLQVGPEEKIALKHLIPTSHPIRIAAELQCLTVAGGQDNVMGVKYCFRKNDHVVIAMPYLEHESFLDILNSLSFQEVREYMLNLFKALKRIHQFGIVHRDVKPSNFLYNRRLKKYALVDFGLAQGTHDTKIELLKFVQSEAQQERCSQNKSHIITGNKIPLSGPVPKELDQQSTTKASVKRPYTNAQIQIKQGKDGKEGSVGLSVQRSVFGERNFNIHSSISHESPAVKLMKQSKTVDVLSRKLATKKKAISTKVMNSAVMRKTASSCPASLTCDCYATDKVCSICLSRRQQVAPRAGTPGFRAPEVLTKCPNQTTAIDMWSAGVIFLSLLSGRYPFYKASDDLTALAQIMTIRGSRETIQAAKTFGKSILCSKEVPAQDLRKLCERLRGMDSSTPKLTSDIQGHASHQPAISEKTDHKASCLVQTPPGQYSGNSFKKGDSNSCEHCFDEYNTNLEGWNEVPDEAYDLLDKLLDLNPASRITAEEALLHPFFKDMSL

“Protein kinase, cGMP-dependent, regulatory, Type I (PRKG1) (from UniProt Q13976 2-671) (enzyme)”: the percentage of phospho-synuclein, ELISA, PEAK-Syn cells transfected with kinase cDNA came out at 8.9%. Regarding “CDC7 cell division cycle 7-like 1 (CDC7L1) (from UniProt O00311 1-574) (enzyme)”, the percentage of phospho-synuclein, ELISA, PEAK-Syn cells transfected with kinase cDNA turned out to be 8.9%.

“Aortic preferentially expressed gene 1 (APEG1) (from UniProt Q15772 1-3267) (enzyme)”: the percentage of phospho-synuclein, ELISA, PEAK-Syn cells transfected with kinase cDNA came to 8.9%.

For “G protein-coupled receptor kinase 6 (GRK6) (from UniProt P43250 1-576) (enzyme)”, the fold increase of phospho-synuclein, HEK-synuclein cells amounted to 2 fold and the percent phospho-synuclein, ELISA, cells transfected with GPRK6 cDNA is 18.9%. On to “Polo like kinase 2 (PLK2) (from UniProt Q9NYY3 1-685) (enzyme)”, for which the fold increase of percent phospho-synuclein, cells transfected with PLK2 cDNA was found to be 4 fold; the fold increase of phospho-synuclein over untransfected cells, ELISA, 293-synuclein cells was 4.3 fold; the percent phospho-synuclein, ELISA, cells transfected with PLK2 cDNA stood at 33.2%.
